Data reported in the RNAGym collection of RNA variant scans (doi:10.7554/elife.90254).

B1: LINE1-full (parent)
chain: UACGUAGGUGGUUUUCCCCUGAUAGUGCUAAGGGGGCCUGGAAGUUUGGACUGGGCAGAGCUCAACACAGCGUGGCAAAGUGGCUGUGGCUAGACUGCCUCUCUGGAUUCCUCGUCACUCAGCAGGGCAUCUCUGAGAGAAAUGCC

Variants of: B1
Assay: self-cleavage, relative activity (ratio to wild type); higher = more cleavage; in vitro, sequencing; the parent is a self-cleaving ribozyme
For UACGUAGGUGGUUUUCCCUUGAUAGUGCUAAGGGGGCCUGGAAGUUUGGACUGGGCAGAGCUCAACACAGCGUGGCUAAGUGGCUGUGGCUAGACUGCCUCUCUGGAUUCCUCGUCACUCAGCAGGGCAUCUCUGAGAGAAAUGCC [C19U A77U], the self-cleavage was 1.3.
With UACGUAGGUGGUUUUCCCUUGAUAGUGCUAAGGGGGCCUGGAAGUUUGGACUGGGCAGAGCUCAACACAGCGUGGCAAAGUGGCUGUGGCUAGAUUGCCUCUCUGGAUUCCUCGUCACUCAGCAGGGCAUCUCUGAGAGAAAUGCC [C19U C95U] the self-cleavage was 0.43.
UACGUAGGUGGUUUUCCCUUGAUAGUGCUAAGGGGGCCUGGAAGUUUGGACUGGGCAGAGCUCAACUCAGCGUGGCAAAGUGGCUGUGGCUAGACUGCCUCUCUGGAUUCCUCGUCACUCAGCAGGGCAUCUCUGAGAGAAAUGCC [C19U A67U] gave a self-cleavage of 0.1.
Work on UACGUAGGUGGUUUUCCCUUGAUAGUGCUAAGGGGGCCUGGAAGUUUGGACUGGGCAGAGCUCAACACAGCGUGGCAAAGUGGCUGUGGCUAGACUGCCUCUCUGGGUUCCUCGUCACUCAGCAGGGCAUCUCUGAGAGAAAUGCC [C19U A107G] yielded a self-cleavage of 1.41.
Work on UACGUAGGUGGUUUUCCCUUGAUAGUGCUAAGGGGGCCUGGAAGUUUGGACUGGGCAGAGCUCAACACAGCGUGGCAAAGUGGCUGUGGCUAGACUGCCUCUCUGGUUUCCUCGUCACUCAGCAGGGCAUCUCUGAGAGAAAUGCC [C19U A107U] yielded a self-cleavage of 1.5.
Work on UACGUAGGUGGUUUUCCCAUGAUAGUGCUAAGGGGGCCUGGAAGUUUGGACUGGGCAGAGCUCAACACAGCGUGGCAAAGUGGCUGUGGCUAGACUGCCUCUCCGGAUUCCUCGUCACUCAGCAGGGCAUCUCUGAGAGAAAUGCC [C19A U104C] yielded a self-cleavage of 1.14.
Work on UACGUAGGUGGUUUUCCCUUGAUAGUGCUAAGGGGGCCUGGAAGUUUGGACUGGGCAGAGCUCAACACAGCGUGGCAAAGUGGCUGUGGCUAGACUGCCUCUCUGGAUUCCUCGUCACUCAGCAGGGCAUCUCUGAGAGAAAUGCC [C19U] yielded a self-cleavage of 1.21.
UACGUAGGUGGUUUUCCCGUGAUAGUGCUAAGGGGGCCUGGAAGUUUGGACUGGGCAGAGCUCAACACAGCGUGGCAAAGUGGCUGUGGCUAGACUGCCUCUCUGGAUUCCUCGUCACUCAGCAGGGCAUCUCUGAGAGAAAUGCC [C19G] showed a self-cleavage of 0.35.
In the case of UACGUAGGUGGUUUUCCCAUGAUAGUGCUAAGGGGGCCUGGAAGUUUGGACUGGGCAGAGCCCAACACAGCGUGGCAAAGUGGCUGUGGCUAGACUGCCUCUCUGGAUUCCUCGUCACUCAGCAGGGCAUCUCUGAGAGAAAUGCC [C19A U62C], the self-cleavage is reported as 0.28.
For UACGUAGGUGGUUUUCCCUUGAUAGUGCUAAGGGGGCCUGGAAGUUUGGACUGGGCAGAGCUCAACACAGCGUGGCAAAGUGGCUGUGGCUAGACUGCCUCUCUGGAUUCCUCGUCACUCAGCAGGGCUUCUCUGAGAGAAAUGCC [C19U A129U], the self-cleavage was 1.84.
Work on UACGUAGGUGGUUUUCCCUUGAUAGUGCUAAGGGGGCCUGGAAGUUUGGACUGGGCAGAGCUCAACACAGCGUGGCACAGUGGCUGUGGCUAGACUGCCUCUCUGGAUUCCUCGUCACUCAGCAGGGCAUCUCUGAGAGAAAUGCC [C19U A78C] yielded a self-cleavage of 1.71.
In the case of UACGUAGGUGGUUUUCCCUUGAUAGUGCUAAGGGGGCCUGGAAGUUUGGACUGGGCAGAGCUCAACACAGCGUGGCAUAGUGGCUGUGGCUAGACUGCCUCUCUGGAUUCCUCGUCACUCAGCAGGGCAUCUCUGAGAGAAAUGCC [C19U A78U], the self-cleavage is reported as 1.72.
Variant UACGUAGGUGGUUUUCCCUUGAUAGUGCUAAGGGGGCCUGGAAGUUUGGACUGGGCAGAGCUCAACACAGCGUGGCAAAGUGGCUGUGGCUAGACUGCCUCUCUGGAUUCCUCGUCACUCAGCAGGGCAUCUCUGAGAGAGAUGCC [C19U A141G] has a self-cleavage of 0.99.
UACGUAGGUGGUUUUCCCUUGAUAGUGCUAAGGGGGCCUGGAAGUUUGGACUGGGCAGAGCUCAACACAGCGUGGCAAAGUGGCUGUGGCUAGACUGCCUCUCUGGAUUCCUCGUCACUCAGCAGGGCAUCUCUGAGAGAUAUGCC [C19U A141U] showed a self-cleavage of 1.
For UACGUAGGUGGUUUUCCCUUGGUAGUGCUAAGGGGGCCUGGAAGUUUGGACUGGGCAGAGCUCAACACAGCGUGGCAAAGUGGCUGUGGCUAGACUGCCUCUCUGGAUUCCUCGUCACUCAGCAGGGCAUCUCUGAGAGAAAUGCC [C19U A22G], the self-cleavage was 1.18.
Variant UACGUAGGUGGUUUUCCCUUGAUAGUGCUAAGGGGGCCUGGAAGUUUGGACUGGGCAGAGCUCAACACAGCGUGGCAAAGUGGCUGUGGCUAGACUGCCUCUCUGGAUUCCUCGUCACUCAGCUGGGCAUCUCUGAGAGAAAUGCC [C19U A124U] has a self-cleavage of 0.76.
UACGUAGGUGGUUUUCCCUUGAUAGUGCUAAGGGGGCCUGGAAGUUUGGACUGGGCAGAGCUCAACACGGCGUGGCAAAGUGGCUGUGGCUAGACUGCCUCUCUGGAUUCCUCGUCACUCAGCAGGGCAUCUCUGAGAGAAAUGCC [C19U A69G] gave a self-cleavage of 0.77.
In the case of UACGUAGGUGGUUUUCCCUUGAUAGUGCUAAGGGGGCAUGGAAGUUUGGACUGGGCAGAGCUCAACACAGCGUGGCAAAGUGGCUGUGGCUAGACUGCCUCUCUGGAUUCCUCGUCACUCAGCAGGGCAUCUCUGAGAGAAAUGCC [C19U C38A], the self-cleavage is reported as 1.13.
Work on UACGUAGGUGGUUUUCCCGUGAUAGUGCUAAGGGGGCCUGGGAGUUUGGACUGGGCAGAGCUCAACACAGCGUGGCAAAGUGGCUGUGGCUAGACUGCCUCUCUGGAUUCCUCGUCACUCAGCAGGGCAUCUCUGAGAGAAAUGCC [C19G A42G] yielded a self-cleavage of 1.41.
With UACGUAGGUGGUUUUCCCGUGAUAGCGCUAAGGGGGCCUGGAAGUUUGGACUGGGCAGAGCUCAACACAGCGUGGCAAAGUGGCUGUGGCUAGACUGCCUCUCUGGAUUCCUCGUCACUCAGCAGGGCAUCUCUGAGAGAAAUGCC [C19G U26C] the self-cleavage was 1.2.
For UACGUAGGUGGUUUUCCCUUGAUAGUGCUAAGGGGGCCUGGAAGUUUGGACUGGGCAGAGCUCAACACAGCGUGGCAAAGUGGCUGUGGCUAGACUGCCUCUCUGGAUUCCUCGUCACUCAGCAGGGCAUCUCUGGGAGAAAUGCC [C19U A136G], the self-cleavage was 0.95.
In the case of UACGUAGGUGGUUUUCCCAUGAUAGUGCUAAGGGGGCCUGGAAGUUUGGACUGGGCAGAGCUCAACACAGCGUGGCAAAGUGGCUGUGGCUAGACUGCCUCUCUGGACUCCUCGUCACUCAGCAGGGCAUCUCUGAGAGAAAUGCC [C19A U108C], the self-cleavage is reported as 1.46.
UACGUAGGUGGUUUUCCCUUGAUAGUGCUAAGGGGGCCUGGAAGUUUGGACUGGGCAGAGCUCAACACAGCGUAGCAAAGUGGCUGUGGCUAGACUGCCUCUCUGGAUUCCUCGUCACUCAGCAGGGCAUCUCUGAGAGAAAUGCC [C19U G74A] gave a self-cleavage of 1.12.
Work on UACGUAGGUGGUUUUCCCGUGAUAGUGCUAAGGGGGCCUGGAAGUUUGGACUGGGCAGAGCUCAACACAGCGUGGCGAAGUGGCUGUGGCUAGACUGCCUCUCUGGAUUCCUCGUCACUCAGCAGGGCAUCUCUGAGAGAAAUGCC [C19G A77G] yielded a self-cleavage of 2.07.
UACGUAGGUGGUUUUCCCGUGAUAGUGCUAAGGGGGCCUGGAAGUUUGGACAGGGCAGAGCUCAACACAGCGUGGCAAAGUGGCUGUGGCUAGACUGCCUCUCUGGAUUCCUCGUCACUCAGCAGGGCAUCUCUGAGAGAAAUGCC [C19G U52A] showed a self-cleavage of 1.16.
UACGUAGGUGGUUUUCCCUUGAUAGUGCUAAGGGGGCCUGGAAGUUUGGACUGAGCAGAGCUCAACACAGCGUGGCAAAGUGGCUGUGGCUAGACUGCCUCUCUGGAUUCCUCGUCACUCAGCAGGGCAUCUCUGAGAGAAAUGCC [C19U G54A] showed a self-cleavage of 0.57.
In the case of UACGUAGGUGGUUUUCCCUUGAUAGUGCUAAGGGGGCCUGGAAGUUUGGACUGGGCAGAGCUCAGCACAGCGUGGCAAAGUGGCUGUGGCUAGACUGCCUCUCUGGAUUCCUCGUCACUCAGCAGGGCAUCUCUGAGAGAAAUGCC [C19U A65G], the self-cleavage is reported as 0.14.
Work on UACGUAGGUGGUUUUCCCUUGAUAGUGCUAAGGGGGCCUGGAAGUUUGGACUGGGCAGAGCUCAACACAGCGUGGCAAAGUGGCUGUGACUAGACUGCCUCUCUGGAUUCCUCGUCACUCAGCAGGGCAUCUCUGAGAGAAAUGCC [C19U G89A] yielded a self-cleavage of 0.11.
UACGUAGGUGGUUUUCCCUUGAUAGUGCUAAGGGGGCCUGGAUGUUUGGACUGGGCAGAGCUCAACACAGCGUGGCAAAGUGGCUGUGGCUAGACUGCCUCUCUGGAUUCCUCGUCACUCAGCAGGGCAUCUCUGAGAGAAAUGCC [C19U A43U] showed a self-cleavage of 1.41.
UACGUAGGUGGUUUUCCCAUGAUAGAGCUAAGGGGGCCUGGAAGUUUGGACUGGGCAGAGCUCAACACAGCGUGGCAAAGUGGCUGUGGCUAGACUGCCUCUCUGGAUUCCUCGUCACUCAGCAGGGCAUCUCUGAGAGAAAUGCC [C19A U26A] gave a self-cleavage of 1.16.
UACGUAGGUGGUUUUCCCUUGAUAGUGCUAAGGGGGCCUGGAAGUUUGGAUUGGGCAGAGCUCAACACAGCGUGGCAAAGUGGCUGUGGCUAGACUGCCUCUCUGGAUUCCUCGUCACUCAGCAGGGCAUCUCUGAGAGAAAUGCC [C19U C51U] showed a self-cleavage of 1.01.
Variant UACGUAGGUGGUUUUCCCACGAUAGUGCUAAGGGGGCCUGGAAGUUUGGACUGGGCAGAGCUCAACACAGCGUGGCAAAGUGGCUGUGGCUAGACUGCCUCUCUGGAUUCCUCGUCACUCAGCAGGGCAUCUCUGAGAGAAAUGCC [C19A U20C] has a self-cleavage of 1.04.
With UACGUAGGUGGUUUUCCCAUGAUAGUGCUAAGGGGGCCUGGAAGUUUGGACUGGGCAGAGCUCAACACAGCGUGGCAAAGUGGCGGUGGCUAGACUGCCUCUCUGGAUUCCUCGUCACUCAGCAGGGCAUCUCUGAGAGAAAUGCC [C19A U85G] the self-cleavage was 0.13.
In the case of UACGUAGGUGGUUUUCCCGUGAUAGUGCUAAGGGGGCCUGGAAGUUUGGACUGGGCAGAGCUCAACACAGCGUGGCAAAGUGGCUGUGGCUAGACUGCCUCUCUGGAUUCCUCGUCACUCAGCAGAGCAUCUCUGAGAGAAAUGCC [C19G G126A], the self-cleavage is reported as 0.49.
Variant UACGUAGGUGGUUUUCCCUUGAUAGUGCUAAAGGGGCCUGGAAGUUUGGACUGGGCAGAGCUCAACACAGCGUGGCAAAGUGGCUGUGGCUAGACUGCCUCUCUGGAUUCCUCGUCACUCAGCAGGGCAUCUCUGAGAGAAAUGCC [C19U G32A] has a self-cleavage of 0.87.
UACGUAGGUGGUUUUCCCUUGAUAGUGCUAAGGGGGCCUGGAAGUUUGGACUGGGCAGAGCUCAACACAGCGUGGCAAAGUGGCUGUGGCUAGACUGCCUCUCUGGAUUCCUCGUCACUCUGCAGGGCAUCUCUGAGAGAAAUGCC [C19U A121U] showed a self-cleavage of 1.03.
With UACGUAGGUGGUUUUCCCUUGAUAGUGCUAAGGGGGCCUGGAAGUUUGGACUGGGCAGAGCUCAACACAGCGUGGCAAAGUGGCUGUGGCUAGACUGCCUCUCUGGAUUCCUCGUCACUCGGCAGGGCAUCUCUGAGAGAAAUGCC [C19U A121G] the self-cleavage was 0.42.
UACGUAGGUGGUUUUCCCUUGAUAGUGCUAAGGGGGCCUGGAAGUUUGGACUGGGCAGAGCUCAACACAGCGUGGCAAAGUGGUUGUGGCUAGACUGCCUCUCUGGAUUCCUCGUCACUCAGCAGGGCAUCUCUGAGAGAAAUGCC [C19U C84U] gave a self-cleavage of 0.22.
UACGUAGGUGGUUUUCCCUUGAUAGUGCUAAGGGGGCCUGGAAGUUUGGACUGGGCAGAGCUCAACACAGCGUGGCAAAGUGGCUGUGGCUAGACUGCCUCUCUGGAUUCCUCGUCUCUCAGCAGGGCAUCUCUGAGAGAAAUGCC [C19U A117U] showed a self-cleavage of 1.28.
